Assay [1] deals with T1, Kv1.3 (Homo sapiens, UniProt P22001). Nature of the assay: patch-clamp dose-response.
Assay [2] deals with T2, Kv1.2 (Homo sapiens, UniProt P16389). Nature of the assay: patch-clamp dose-response. Background: In patch-clamp work, channel activity is measured electrically.
Assay [3] deals with T1, Kv1.3. Nature of the assay: patch-clamp kinetics (koff/kon).
Assay [4] has as its target T2, Kv1.2. Put plainly: patch-clamp kinetics (koff/kon).

The term Kd denotes the constant that tells how readily two partners part at equilibrium. Lower therefore signals tighter binding.

Ends that are not written are not given here.

T1 sequence (P22001 whole entry): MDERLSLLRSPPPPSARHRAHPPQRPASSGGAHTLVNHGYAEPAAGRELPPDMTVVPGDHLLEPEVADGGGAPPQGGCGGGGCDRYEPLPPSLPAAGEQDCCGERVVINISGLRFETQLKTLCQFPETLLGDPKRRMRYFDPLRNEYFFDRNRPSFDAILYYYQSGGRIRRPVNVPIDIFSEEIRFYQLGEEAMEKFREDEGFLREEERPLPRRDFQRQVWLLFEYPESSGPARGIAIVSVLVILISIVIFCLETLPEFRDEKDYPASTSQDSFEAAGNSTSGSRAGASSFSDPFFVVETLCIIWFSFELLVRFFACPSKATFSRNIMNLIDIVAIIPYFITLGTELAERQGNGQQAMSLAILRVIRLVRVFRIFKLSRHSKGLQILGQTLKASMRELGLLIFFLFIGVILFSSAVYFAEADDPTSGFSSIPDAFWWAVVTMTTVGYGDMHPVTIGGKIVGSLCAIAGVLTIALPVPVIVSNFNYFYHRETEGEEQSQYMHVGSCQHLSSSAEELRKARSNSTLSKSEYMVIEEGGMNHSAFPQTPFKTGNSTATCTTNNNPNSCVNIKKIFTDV
T2 sequence (P16389 whole entry): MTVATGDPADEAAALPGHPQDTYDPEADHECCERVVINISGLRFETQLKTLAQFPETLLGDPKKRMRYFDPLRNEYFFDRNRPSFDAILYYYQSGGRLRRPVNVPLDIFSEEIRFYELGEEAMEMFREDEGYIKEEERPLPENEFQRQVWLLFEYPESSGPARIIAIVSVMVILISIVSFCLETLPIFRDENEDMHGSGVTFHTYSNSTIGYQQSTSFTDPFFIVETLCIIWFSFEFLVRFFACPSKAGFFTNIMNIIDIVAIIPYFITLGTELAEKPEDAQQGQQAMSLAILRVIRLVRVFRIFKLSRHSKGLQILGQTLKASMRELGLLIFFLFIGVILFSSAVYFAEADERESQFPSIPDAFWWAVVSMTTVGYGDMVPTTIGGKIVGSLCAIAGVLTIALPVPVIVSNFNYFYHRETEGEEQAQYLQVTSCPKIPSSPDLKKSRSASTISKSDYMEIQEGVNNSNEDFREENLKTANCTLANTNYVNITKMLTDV

As for {Glu-Phe-H2N-H2N-H2N-H2N-H2N-H2N}-LQIEGRTIINVKCTSPKQCLPPCKAQFGQSAGAKCMNGKCKCYPH (not fully specified; ends and bridges not checked) [Margatoxin (TrMgTx)], the Kd in assay [1] is 0.086 nM; in assay [2], 0.064 nM; in assay [3] it was 0.0839 nM; in assay [4], 0.0623 nM.

Consider TIINVKCTSPKQCLPPCKAQFGQSAGAKCMNGKCKCYPH [Margatoxin (UrMgTx)], for which the Kd in assay [1] was found to be 0.05 nM; in assay [2], 0.014 nM; in assay [3], 0.0522 nM; in assay [4] it was 0.015 nM.

The record behind these values is publication PMC8511391 (2021).
